Target: T1, His-SUMO-FREE1 (Arabidopsis thaliana, UniProt Q9ASS2 1-601)
T1 construct: FREE1 (FYVE1), Arabidopsis thaliana, locus AT1G20110; also called Sumo-tagged FREE1; not shown: His, N-terminal, kept; SUMO, N-terminal, kept
T1 sequence (looked up): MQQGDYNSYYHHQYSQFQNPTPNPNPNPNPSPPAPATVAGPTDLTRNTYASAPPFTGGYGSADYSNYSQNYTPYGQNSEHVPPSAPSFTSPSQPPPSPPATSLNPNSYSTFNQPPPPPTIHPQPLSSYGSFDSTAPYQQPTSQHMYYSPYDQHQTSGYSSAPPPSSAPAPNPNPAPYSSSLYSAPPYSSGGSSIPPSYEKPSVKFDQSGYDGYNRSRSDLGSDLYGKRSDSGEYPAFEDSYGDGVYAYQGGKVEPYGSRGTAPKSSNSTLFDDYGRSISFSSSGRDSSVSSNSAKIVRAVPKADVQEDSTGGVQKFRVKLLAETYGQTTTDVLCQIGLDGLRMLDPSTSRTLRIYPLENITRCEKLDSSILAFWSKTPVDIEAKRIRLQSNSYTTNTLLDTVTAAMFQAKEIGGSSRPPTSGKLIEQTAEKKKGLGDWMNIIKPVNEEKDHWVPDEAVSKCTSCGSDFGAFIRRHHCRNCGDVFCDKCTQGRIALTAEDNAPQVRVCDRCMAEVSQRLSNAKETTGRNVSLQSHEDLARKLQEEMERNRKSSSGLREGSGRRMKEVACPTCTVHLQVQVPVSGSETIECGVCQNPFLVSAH
Experiment: pull-down; competition: in vitro binding assay on amylose resin bound with MBP-Vps23A (or the Vps23A CC domain as bait) with a constant amount of one His-SUMO protein (30 pmol BRAF) and 10, 30, 100 or 300 pmol of the competing His-SUMO protein; immunoblot, quantified
Conditions: both partners purified

binding result: binds
B1: MBP-Vps23A (natural protein, Arabidopsis thaliana, UniProt Q9LHG8 1-398, looked up)
chain: MVPPPSNPQQVQQFLSSALSQRGPSSVPYEESNKWLIRQHLLNLISSYPSLEPKTASFMHNDGRSVNLLQADGTIPMPFHGVTYNIPVIIWLLESYPRHPPCVYVNPTADMIIKRPHAHVTPSGLVSLPYLQNWVYPSSNLVDLVSDLSAAFARDPPLYSRRRPQPPPPSPPTVYDSSLSRPPSADQSLPRPFPPSPYGGGVSRVQVQHVHHQQQSDDAAEVFKRNAINKMVEMVHSDLVSMRRAREAEAEELLSLQAGLKRREDELNIGLKEMVEEKETLEQQLQIISMNTDILDSWVRENQGKTKNLVDLDVDNAFECGDTLSKQMLECTALDLAIEDAIYSLDKSFQDGVVPFDQYLRNVRLLSREQFFHRATGSKVRAAQMEVQVAAIAGRLHS
notes: Vps23A/ELC, Arabidopsis thaliana, locus AT3G12400; Vector: in-house pRHisMBP; it may also add a His tag; source: E. coli BL21(DE3) pLysS, purified (amylose resin); not shown: MBP, N-terminal, kept
